Measured values published in patent publication US20170002055A1, “Novel peptides and combination of peptides for use in immunotherapy against ovarian cancer and other cancers” (immatics biotechnologies GmbH, priority 2015, published 2017).

Target: HLA-A*02:01 (Homo sapiens, UniProt P04439, D140Y/D185E/D98H/E176V/E277Q/G131W/G231S/I119V/I121R/I166T/I218V/L300P/L318F/N151K/N90K/P208A/P217A/Q86G/Q94H/R138H/R169H/T345S)
Experiment: MHC binding assay (UV-ligand exchange, β2m ELISA, peptide exchange yield)
Conditions: MHC class I binding score; binding to HLA-A*02:01 ranged by peptide exchange yield (UV-ligand exchange, β2m ELISA)
Text: Candidate peptides for T cell based therapies according to the present invention were further tested for their MHC binding capacity (affinity). The individual peptide-MHC complexes were produced by UV-ligand exchange, where a UV-sensitive peptide is cleaved upon UV-irradiation, and exchanged with the peptide of interest as analyzed. Only peptide candidates that can effectively bind and stabilize the peptide-receptive MHC molecules prevent dissociation of the MHC complexes. To determine the yield of the exchange reaction, an ELISA was performed based on the detection of the light chain (β2m) of stabilized MHC complexes. The assay was performed as generally described in Rodenko et al. (Rodenko et al., 2006).
96 well MAXISorp plates (NUNC) were coated over night with 2 ug/ml streptavidin in PBS at room temperature, washed 4× and blocked for 1h at 37° C. in 2% BSA containing blocking buffer. […] Peptide-MHC monomers of the UV-exchange reaction were diluted 100 fold in blocking buffer. Samples were incubated for 1h at 37° C., washed four times, incubated with 2 ug/ml HRP conjugated anti-β2m for 1h at 37° C., washed again and detected with TMB solution that is stopped with […]. Absorption was measured at 450 nm. Candidate peptides that show a high exchange yield (preferably higher than 50%, most preferred higher than 75%) are generally preferred for a generation and production of antibodies or fragments thereof, and/or T cell receptors or fragments thereof, as they show sufficient avidity to the MHC molecules and prevent dissociation of the MHC complexes.

| Substance | Peptide exchange |
| --- | --- |
| 131 (FVPPVTVFPSL; listed as Homo sapiens) [compound 131] | “++” (≧20% = ++) |
| 132 (LLVEQPPLAGV; listed as Homo sapiens) [compound 132] | “+++” (≧50 = +++) |
| 133 (KVLSNIHTV; listed as Homo sapiens) [compound 133] | “++” (≧20% = ++) |
| 134 (YLQELIFSV; listed as Homo sapiens) [compound 134] | “+++” (≧50 = +++) |
| 135 (ALSEVDFQL; listed as Homo sapiens) [compound 135] | “+++” (≧50 = +++) |
| 136 (YLADPSNLFVV; listed as Homo sapiens) [compound 136] | “+++” (≧50 = +++) |
| 137 (TLVLTLPTV; listed as Homo sapiens) [compound 137] | “++++” (≧75% = ++++) |
| 138 (YQYPRAILSV; listed as Homo sapiens) [compound 138] | “+++” (≧50 = +++) |
| 139 (SVMEVNSGIYRV; listed as Homo sapiens) [compound 139] | “+++” (≧50 = +++) |
| 140 (YMDAPKAAL; listed as Homo sapiens) [compound 140] | “++” (≧20% = ++) |
| 142 (FLFATPVFI; listed as Homo sapiens) [compound 142] | “+++” (≧50 = +++) |
| 144 (YIMEPSIFNTL; listed as Homo sapiens) [compound 144] | “+++” (≧50 = +++) |
| 145 (FLATSGTLAGI; listed as Homo sapiens) [compound 145] | “++” (≧20% = ++) |
| 146 (SLATAGDGLIEL; listed as Homo sapiens) [compound 146] | “++” (≧20% = ++) |
| 147 (SLLEAVSFL; listed as Homo sapiens) [compound 147] | “+++” (≧50 = +++) |
| 148 (ALNPEIVSV; listed as Homo sapiens) [compound 148] | “++” (≧20% = ++) |
| 149 (NLLELFVQL; listed as Homo sapiens) [compound 149] | “+++” (≧50 = +++) |
| 151 (KILQQLVTL; listed as Homo sapiens) [compound 151] | “+++” (≧50 = +++) |
| 153 (FLIANVLYL; listed as Homo sapiens) [compound 153] | “+” (≧10% = +) |
| 154 (ALDDGTPAL; listed as Homo sapiens) [compound 154] | “++” (≧20% = ++) |
| 155 (RVANLHFPSV; listed as Homo sapiens) [compound 155] | “+++” (≧50 = +++) |
| 158 (KLFDVDEDGYI; listed as Homo sapiens) [compound 158] | “+++” (≧50 = +++) |
| 159 (GLVGNPLPSV; listed as Homo sapiens) [compound 159] | “++++” (≧75% = ++++) |
| 160 (FLFDEEIEQI; listed as Homo sapiens) [compound 160] | “+++” (≧50 = +++) |

| Substance | Peptide exchange |
| --- | --- |
| 161 (ALLEGVNTV; listed as Homo sapiens) [compound 161] | “+++” (≧50 = +++) |
| 162 (YQQAQVPSV; listed as Homo sapiens) [compound 162] | “+++” (≧50 = +++) |
| 163 (ALDEMGDLLQL; listed as Homo sapiens) [compound 163] | “+++” (≧50 = +++) |
| 164 (ALLPQPKNLTV; listed as Homo sapiens) [compound 164] | “+++” (≧50 = +++) |
| 165 (SLLDEIRAV; listed as Homo sapiens) [compound 165] | “+++” (≧50 = +++) |
| 167 (KVLEVTEEFGV; listed as Homo sapiens) [compound 167] | “+++” (≧50 = +++) |
| 168 (KILDADIQL; listed as Homo sapiens) [compound 168] | “++++” (≧75% = ++++) |
| 169 (NLPEYLPFV; listed as Homo sapiens) [compound 169] | “+++” (≧50 = +++) |
| 170 (RLQETLSAA; listed as Homo sapiens) [compound 170] | “+++” (≧50 = +++) |
| 171 (LLLPLQILL; listed as Homo sapiens) [compound 171] | “+++” (≧50 = +++) |
| 172 (VLYSYTIITV; listed as Homo sapiens) [compound 172] | “++” (≧20% = ++) |
| 173 (LLDSASAGLYL; listed as Homo sapiens) [compound 173] | “+++” (≧50 = +++) |
| 174 (ALAQYLITA; listed as Homo sapiens) [compound 174] | “+++” (≧50 = +++) |
| 175 (YLFENISQL; listed as Homo sapiens) [compound 175] | “+++” (≧50 = +++) |
| 176 (YLMEGSYNKVFL; listed as Homo sapiens) [compound 176] | “++” (≧20% = ++) |
| 177 (YLLPEEYTSTL; listed as Homo sapiens) [compound 177] | “++++” (≧75% = ++++) |
| 178 (ALTEIAFVV; listed as Homo sapiens) [compound 178] | “++++” (≧75% = ++++) |
| 179 (KVLNELYTV; listed as Homo sapiens) [compound 179] | “+++” (≧50 = +++) |
| 180 (FQIDPHSGLVTV; listed as Homo sapiens) [compound 180] | “++” (≧20% = ++) |
| 181 (LLWAGTAFQV; listed as Homo sapiens) [compound 181] | “+++” (≧50 = +++) |
| 182 (MLLEAPGIFL; listed as Homo sapiens) [compound 182] | “+++” (≧50 = +++) |
| 183 (FGLDLVTEL; listed as Homo sapiens) [compound 183] | “+++” (≧50 = +++) |
| 184 (YLMDINGKMWL; listed as Homo sapiens) [compound 184] | “+++” (≧50 = +++) |
| 185 (FLIDDKGYTL; listed as Homo sapiens) [compound 185] | “++” (≧20% = ++) |

| Substance | Peptide exchange |
| --- | --- |
| 186 (TLFFQQNAL; listed as Homo sapiens) [compound 186] | “++” (≧20% = ++) |
| 187 (RQISIRGIVGV; listed as Homo sapiens) [compound 187] | “+++” (≧50 = +++) |
| 188 (GLFPVTPEAV; listed as Homo sapiens) [compound 188] | “+++” (≧50 = +++) |
| 189 (ALQRKLPYV; listed as Homo sapiens) [compound 189] | “+++” (≧50 = +++) |
| 190 (FLSSLTETI; listed as Homo sapiens) [compound 190] | “+++” (≧50 = +++) |
| 192 (KMLDGASFTL; listed as Homo sapiens) [compound 192] | “+++” (≧50 = +++) |
| 193 (QLLDADGFLNV; listed as Homo sapiens) [compound 193] | “+++” (≧50 = +++) |
| 194 (ALPLFVITV; listed as Homo sapiens) [compound 194] | “+++” (≧50 = +++) |
| 195 (GLFADLLPRL; listed as Homo sapiens) [compound 195] | “+++” (≧50 = +++) |
| 196 (YLYSVEIKL; listed as Homo sapiens) [compound 196] | “++++” (≧75% = ++++) |
| 197 (ALGPEGGRV; listed as Homo sapiens) [compound 197] | “++” (≧20% = ++) |
| 200 (LLFGSVQEV; listed as Homo sapiens) [compound 200] | “+++” (≧50 = +++) |
| 201 (RLVDYLEGI; listed as Homo sapiens) [compound 201] | “+++” (≧50 = +++) |
| 202 (ALLDQQGSRWTL; listed as Homo sapiens) [compound 202] | “+++” (≧50 = +++) |
| 204 (KIAENVEEV; listed as Homo sapiens) [compound 204] | “++” (≧20% = ++) |
| 205 (SLYPGTETMGL; listed as Homo sapiens) [compound 205] | “+++” (≧50 = +++) |
| 206 (VLQEGKLQKLAQL; listed as Homo sapiens) [compound 206] | “+++” (≧50 = +++) |
| 207 (GLTSTNAEV; listed as Homo sapiens) [compound 207] | “++” (≧20% = ++) |
| 208 (KISPVTFSV; listed as Homo sapiens) [compound 208] | “+++” (≧50 = +++) |
| 209 (KLIESKHEV; listed as Homo sapiens) [compound 209] | “++” (≧20% = ++) |
| 210 (LLLNAVLTV; listed as Homo sapiens) [compound 210] | “++” (≧20% = ++) |
| 211 (LLWPGAALL; listed as Homo sapiens) [compound 211] | “++” (≧20% = ++) |
| 212 (ALWDQDNLSV; listed as Homo sapiens) [compound 212] | “++” (≧20% = ++) |
